Laboratory results: doi:10.1101/2025.10.27.684836 (bioRxiv, 2025)
One block for each molecule: values may come before it.

What was measured:
[1] = target: His-MBP-SALL4(QID-ZFC4) fusion protein (mouse); experiment: SEC-MALS
[2] = target: the molecule itself; experiment: SEC-MALS
[3] = target: T1, SALL4 QID-ZFC4 (UniProt Q8BX22 201-240+870-940, internal_change); experiment: SPR
T1 sequence: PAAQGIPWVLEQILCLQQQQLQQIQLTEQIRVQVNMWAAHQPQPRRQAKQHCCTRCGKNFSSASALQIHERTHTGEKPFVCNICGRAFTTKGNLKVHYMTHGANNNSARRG

stoichiometry N [1]: 4
Molecule: His-MBP-SALL4(QID-ZFC4) fusion protein (domain or fragment)

Molecule: GAEAPMAPMPAAQGIPWVLEQILCLQQQQLQQIQLTEQIRVQVNMW (domain or fragment, mouse, UniProt Q8BX22 192-237, looked up) [recombinant SALL4 QID (192-237) peptide]
stoichiometry N [2]: 4

B1: SPR probe, single ATATTA motif (dsDNA)
DNA 1: AGCAGGCCTAATATCGCAC
DNA 2: GTGCGATATTAGGCCTGCT
binding result [3]: binds
